The labels stand for the following.
B1: Gid8 with a C-terminal twin-Strep tag (natural protein)
chain: MTISTLSNETTKSGSCSGQGKNGGKDFTYGKKCFTKEEWKEQVAKYSAMGELYANKTIHYPLKIQPNSSGGSQDEGFATIQTTPIEPTLPRLLLNYFVSMAYEDSSIRMAKELGFIRNNKDIAVFNDLYKIKERFHIKHLIKLGRINEAMEEINSIFGLEVLEETFNATGSYTGRTDRQQQQQQQQFDIDGDLHFKLLLLNLIEMIRSHHQQENITKDSNDFILNLIQYSQNKLAIKASSSVKKMQELELAMTLLLFPLSDSADSGSIKLPKSLQNLYSISLRSKIADLVNEKLLKFIHPRIQFEISNNNSKFPDLLNSDKKIITQNFTVYNNNLVNGSNGTKITHISSDQPINEKMSSNEVTAAANSVWLNQRDGNVGTGSAATTFHNLENKNYWNQTSELLSSSNGKEKGLEFNNYYSSEFPYEPRLTQIMKLWCWCENQLHHNQIGVPRVEN
B2: Gid7 (natural protein)
chain: MSHTNKIAYVLNNDTEETASPSSVGCFDKKQLTKLLIHTLKELGYDSAANQLLLESGGYQNESNHIQTFFKLIKTGQFHLINWQIVCSLPLAHSSPLRSEWLQRLLIPTPTPATTSLFDHMLLQLQYLQQLMSSVNSSTCSDAEIATLRNYVEIMILVNRQIFLEFFHPVTNSASHKGPHTALPVLYLRKILKNFIEIWDSLLVSNDQFLNEENIFNPETTLRELSTYLTNPKLTAQLNLERDHLIDAISKYIDPNELVPKGRLLHLLKQAIKYQQSQDIFNIIDPDDDASFSSPPHRINLLQDNFSHDLTVTFQEWKTIQDTTDEIWFLTFSPNGKYLASATSESSRGYFITVYDVEQDFKIYKTCVSLSQSVLYLMFSPDSRYLVACPFSEDVTIYDMNATSLPDASATDSFLLYPSTRLSPMDSFKLDTTTYPDDTESSASSSSRPANANSNQSRVWCCDAFHTAERAGWMVVGSPDREAIVHSLTTKESLFSLKGRTCIALGHDENISGRKSIDPAKVLYKPTSSNGNWQYVEDDETFPRVHDVKISYDDKYVLLMTHQGVIDVYDFSGFPSKEELSKQTVDPKNFLIPRIARLDVGKNMTCISLPLNTTHQGFHRQQISESQHLVLVSLQDNELQMWDYKENILIQKYFGQKQQHFIIRSCFAYGNKLVMSGSEDGKIYIWDRIRGNLVSVLSGHSTVMSNSTKPMGKNCNVVASNPADKEMFASGGDDGKIKIWKISRN

Common to all, as to experiment: cryo-EM structure
The assay “Gid7” addresses B2.
The next assay has as its target Gid7 (S. cerevisiae) (UniProt P25569).
Another assay deals with GID^SR4 (S. cerevisiae, UniProt P53076;P40208;P40547;P38263;Q12508;P40492).
GID^SR4, sequence (P40547 whole entry, chain 3 of 4): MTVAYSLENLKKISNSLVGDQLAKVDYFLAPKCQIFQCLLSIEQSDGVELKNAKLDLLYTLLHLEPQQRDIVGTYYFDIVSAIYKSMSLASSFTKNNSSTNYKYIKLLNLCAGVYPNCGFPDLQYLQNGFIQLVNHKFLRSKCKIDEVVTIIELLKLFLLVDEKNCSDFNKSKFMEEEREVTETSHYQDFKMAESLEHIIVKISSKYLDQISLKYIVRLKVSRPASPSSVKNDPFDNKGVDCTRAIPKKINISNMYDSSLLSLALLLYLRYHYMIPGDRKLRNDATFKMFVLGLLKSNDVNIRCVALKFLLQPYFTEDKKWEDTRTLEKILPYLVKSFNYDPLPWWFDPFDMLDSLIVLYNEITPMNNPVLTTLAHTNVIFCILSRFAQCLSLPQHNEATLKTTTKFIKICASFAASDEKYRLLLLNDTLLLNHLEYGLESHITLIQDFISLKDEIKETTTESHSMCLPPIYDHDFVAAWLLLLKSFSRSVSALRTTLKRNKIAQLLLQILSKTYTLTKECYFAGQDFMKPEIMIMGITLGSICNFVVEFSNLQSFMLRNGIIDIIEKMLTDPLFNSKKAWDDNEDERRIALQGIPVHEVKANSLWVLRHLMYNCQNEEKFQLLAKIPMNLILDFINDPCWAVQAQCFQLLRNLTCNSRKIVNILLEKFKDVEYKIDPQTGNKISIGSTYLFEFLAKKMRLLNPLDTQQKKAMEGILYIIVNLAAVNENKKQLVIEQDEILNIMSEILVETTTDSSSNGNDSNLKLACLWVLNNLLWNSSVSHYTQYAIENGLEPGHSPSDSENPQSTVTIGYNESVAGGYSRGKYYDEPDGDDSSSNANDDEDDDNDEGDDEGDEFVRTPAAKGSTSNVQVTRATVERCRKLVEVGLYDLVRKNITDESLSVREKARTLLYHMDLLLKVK
GID^SR4, sequence (P38263 117-362, chain 4 of 4): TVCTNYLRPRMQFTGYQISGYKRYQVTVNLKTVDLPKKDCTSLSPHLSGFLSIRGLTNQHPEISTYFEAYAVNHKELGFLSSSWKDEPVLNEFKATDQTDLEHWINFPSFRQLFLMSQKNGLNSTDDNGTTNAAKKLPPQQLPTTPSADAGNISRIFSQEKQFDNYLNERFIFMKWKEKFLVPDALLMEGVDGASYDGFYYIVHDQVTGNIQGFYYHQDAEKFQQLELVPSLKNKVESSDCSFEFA
GID^SR4, sequence (Q12508 whole entry, chain 5 of 4): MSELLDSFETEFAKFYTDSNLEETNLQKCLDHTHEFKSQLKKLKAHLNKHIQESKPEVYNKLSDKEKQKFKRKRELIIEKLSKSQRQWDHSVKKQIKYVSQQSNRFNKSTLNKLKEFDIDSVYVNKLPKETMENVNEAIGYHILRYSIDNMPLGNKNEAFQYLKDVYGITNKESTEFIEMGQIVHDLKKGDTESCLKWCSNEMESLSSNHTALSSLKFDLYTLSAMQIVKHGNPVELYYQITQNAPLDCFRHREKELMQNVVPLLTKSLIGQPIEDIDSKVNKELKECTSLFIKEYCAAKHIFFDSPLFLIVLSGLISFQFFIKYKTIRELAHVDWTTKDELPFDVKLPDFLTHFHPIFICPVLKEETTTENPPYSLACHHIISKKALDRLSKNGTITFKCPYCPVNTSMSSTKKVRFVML
GID^SR4, sequence (P40492 whole entry, chain 6 of 4): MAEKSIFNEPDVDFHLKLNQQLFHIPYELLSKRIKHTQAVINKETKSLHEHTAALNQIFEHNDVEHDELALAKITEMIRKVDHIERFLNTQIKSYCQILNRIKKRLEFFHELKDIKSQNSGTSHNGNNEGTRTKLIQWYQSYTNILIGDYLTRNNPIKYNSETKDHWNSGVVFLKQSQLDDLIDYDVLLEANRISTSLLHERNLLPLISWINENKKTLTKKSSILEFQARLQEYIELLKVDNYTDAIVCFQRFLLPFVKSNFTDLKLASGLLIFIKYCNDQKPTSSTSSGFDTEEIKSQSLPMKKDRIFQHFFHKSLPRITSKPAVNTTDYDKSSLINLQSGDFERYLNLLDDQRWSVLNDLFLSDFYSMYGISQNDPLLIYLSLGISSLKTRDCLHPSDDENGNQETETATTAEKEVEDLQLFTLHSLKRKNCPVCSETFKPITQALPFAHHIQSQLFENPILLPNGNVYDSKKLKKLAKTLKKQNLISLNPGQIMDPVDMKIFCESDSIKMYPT
The target in another assay is T1, Gid1 (S. cerevisiae, UniProt P53076).
T1 sequence: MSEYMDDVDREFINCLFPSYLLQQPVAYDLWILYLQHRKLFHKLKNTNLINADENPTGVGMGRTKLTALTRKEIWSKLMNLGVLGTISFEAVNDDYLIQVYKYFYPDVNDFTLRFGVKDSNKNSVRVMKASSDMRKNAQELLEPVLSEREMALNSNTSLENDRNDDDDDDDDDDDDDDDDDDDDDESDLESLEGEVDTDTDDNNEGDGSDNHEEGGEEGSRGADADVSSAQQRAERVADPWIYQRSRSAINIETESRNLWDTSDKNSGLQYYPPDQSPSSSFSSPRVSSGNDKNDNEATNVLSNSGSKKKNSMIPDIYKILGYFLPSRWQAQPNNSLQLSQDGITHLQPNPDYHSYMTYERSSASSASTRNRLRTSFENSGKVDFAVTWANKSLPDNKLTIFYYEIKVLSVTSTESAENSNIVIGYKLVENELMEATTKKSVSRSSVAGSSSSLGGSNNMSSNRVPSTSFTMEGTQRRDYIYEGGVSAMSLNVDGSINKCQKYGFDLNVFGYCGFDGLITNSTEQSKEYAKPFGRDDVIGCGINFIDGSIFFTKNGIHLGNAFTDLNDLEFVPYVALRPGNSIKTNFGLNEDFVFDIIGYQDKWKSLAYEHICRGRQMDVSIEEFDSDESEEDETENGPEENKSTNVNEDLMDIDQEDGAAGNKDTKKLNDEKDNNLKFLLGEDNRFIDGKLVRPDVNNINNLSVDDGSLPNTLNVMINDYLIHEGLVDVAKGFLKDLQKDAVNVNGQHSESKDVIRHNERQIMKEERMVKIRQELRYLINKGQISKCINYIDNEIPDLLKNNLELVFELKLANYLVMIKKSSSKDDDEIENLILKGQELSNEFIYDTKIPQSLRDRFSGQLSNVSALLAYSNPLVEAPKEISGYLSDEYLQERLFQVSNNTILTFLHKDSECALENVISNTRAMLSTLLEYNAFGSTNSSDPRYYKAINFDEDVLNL

For orientation: stoichiometry N means a count of units in the complex or per binding partner.

As for B1, the binding result with Gid7 is on record as “binds”.

Molecule B2 showed a stoichiometry N with Gid7 (S. cerevisiae) of 2. Besides, the binding result with GID^SR4 and with Gid1 was “binds” throughout.

These data come from paper PMC8189437 (Molecular Cell, 2021).
